The values that follow come from patent US20110162109A1 (BASF PLANT SCIENCE, published 2011).

The labels stand for the following.
T1: LUG/RON2, At4G32551 (Arabidopsis thaliana, UniProt Q9FUY2 1-931)
T1 construct: Endogenous prey in TAP; fusion protein in yeast two-hybrid
T1 sequence (looked up): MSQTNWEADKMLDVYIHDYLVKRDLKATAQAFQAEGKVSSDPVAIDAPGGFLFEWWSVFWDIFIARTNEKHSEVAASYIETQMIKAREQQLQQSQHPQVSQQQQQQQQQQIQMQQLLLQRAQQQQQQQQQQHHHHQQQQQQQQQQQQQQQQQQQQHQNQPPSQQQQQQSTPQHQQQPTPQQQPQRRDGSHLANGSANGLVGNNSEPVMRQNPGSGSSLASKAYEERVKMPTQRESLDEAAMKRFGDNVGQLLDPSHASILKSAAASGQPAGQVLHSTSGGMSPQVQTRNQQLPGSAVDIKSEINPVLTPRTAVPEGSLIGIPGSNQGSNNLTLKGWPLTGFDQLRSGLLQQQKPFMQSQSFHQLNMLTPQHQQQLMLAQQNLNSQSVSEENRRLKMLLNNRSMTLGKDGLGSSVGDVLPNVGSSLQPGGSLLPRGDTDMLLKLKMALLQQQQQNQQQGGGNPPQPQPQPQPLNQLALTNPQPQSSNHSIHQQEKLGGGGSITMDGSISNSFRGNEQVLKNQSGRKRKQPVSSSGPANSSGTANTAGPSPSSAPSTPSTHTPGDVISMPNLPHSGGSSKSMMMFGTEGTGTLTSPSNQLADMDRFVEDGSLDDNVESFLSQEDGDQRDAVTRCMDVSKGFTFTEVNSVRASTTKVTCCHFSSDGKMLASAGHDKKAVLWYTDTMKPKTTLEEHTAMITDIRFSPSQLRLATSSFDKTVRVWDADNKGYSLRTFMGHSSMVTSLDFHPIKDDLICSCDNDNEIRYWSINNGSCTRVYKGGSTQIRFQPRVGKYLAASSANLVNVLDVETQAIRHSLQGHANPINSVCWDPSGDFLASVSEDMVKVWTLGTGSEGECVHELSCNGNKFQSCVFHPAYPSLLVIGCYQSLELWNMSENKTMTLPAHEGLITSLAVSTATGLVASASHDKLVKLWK

B1: SEUSS, At1g43850 (other, Arabidopsis thaliana, UniProt Q8W234 1-877, looked up)
chain: MVPSEPPNPVGGGENVPPSILGGQGGAPLPSQPAFPSLVSPRTQFGNNMSMSMLGNAPNISSLLNNQSFVNGIPGSMISMDTSGAESDPMSNVGFSGLSSFNASSMVSPRSSGQVQGQQFSNVSANQLLAEQQRNKKMETQSFQHGQQQSMQQQFSTVRGGGLAGVGPVKMEPGQVSNDQQHGQVQQQQQKMLRNLGSVKLEPQQIQAMRNLAQVKMEPQHSEQSLFLQQQQRQQQQQQQQQFLQMPGQSPQAQMNIFQQQRLMQLQQQQLLKSMPQQRPQLPQQFQQQNLPLRPPLKPVYEPGMGAQRLTQYMYRQQHRPEDNNIEFWRKFVAEYFAPNAKKRWCVSMYGSGRQTTGVFPQDVWHCEICNRKPGRGFEATAEVLPRLFKIKYESGTLEELLYVDMPRESQNSSGQIVLEYAKATQESVFEHLRVVRDGQLRIVFSPDLKIFSWEFCARRHEELIPRRLLIPQVSQLGSAAQKYQQAAQNATTDSALPELQNNCNMFVASARQLAKALEVPLVNDLGYTKRYVRCLQISEVVNSMKDLIDYSRETRTGPIESLAKFPRRTGPSSALPGPSPQQASDQLRQQQQQQQQQQQQQQQQQQQQQQQQTVSQNTNSDQSSRQVALMQGNPSNGVNYAFNAASASTSTSSIAGLIHQNSMKGRHQNAAYNPPNSPYGGNSVQMQSPSSSGTMVPSSSQQQHNLPTFQSPTSSSNNNNPSQNGIPSVNHMGSTNSPAMQQAGEVDGNESSSVQKILNEILMNNQAHNNSSGGSMVGHGSFGNDGKGQANVNSSGVLLMNGQVNNNNNTNIGGAGGFGGGIGQSMAANGINNINGNNSLMNGRVGMMVRDPNGQQDLGNQLLGAVNGFNNFDWNA
notes: As prey endogenous; as bait N-terminal GS-TAP fusion; in yeast two-hybrid an AD fusion
B2: HUB1 (Histone Monoubiquitination 1), At2g44950, Arabidopsis thaliana (enzyme)
chain: MASTGEPDRKRRHFSSISPSEAAAAVKKQPFFWPSSEDKLDTAVLQFQNLKLSQKLEAQQVECSILEDKLSQIKEKQLPYNSSLKTVHKSWEKLTASVESCSVRVSDSSSGAHRFVNKEDGSSPAVKNDFINRLLETGATESSSSNICSNQMEENGVNTSSQMTQTLYNLVAATEDLRCLKDELYPTVLRTNLGKDLCGQLALSELESEIKSFRGDLDDVLVKFKSLSRELQSHRDADAKVRVDLKRIRGELEDEVVELQQCNGDLSALRAERDATAGAFFPVLSLGNKLATSDRERDKQRDLQDMETVLKELTVLASGRLQQLKNLHEERTKMLGKMSNLQNKSKSVRCISSSQACLSLKDQLEKSKEAVFQYMALLEKLQVEKDSIVWKEREINIKNELGDVSRKTSAVTDSRMASLDSEIQKQLDEKMRIKTRLGNISRERGRKEIFADMKALISSFPEEMSSMRSQLNNYKETAGGIHSLRADVQSLSGVLCRKTKEYEALQLRSADYASQLGDLNATVCDLKNSHEELKLFLDMYKRESTDARDIAEAKEQEYRAWAHVQSLKSSLDEQNLELRVKAANEAEAVSQQMLAAAEAEIADLRQKMDDCKRDVAKHSDILKSKHEEHGTYLSEIQTIGSAYEDIVPQNQRLLLQVTERDDYNIKLFLEGITSRQMQDTLLIDKYIMDKDIQQGSAYASFLSKKSSRIEDQLRFCTDQFQKLAEDKYQKSVSLENLQKKRADIGNGLEQARSRLEESHSKVEQSRLDYGALELELEIERFNRRRIEEEMEIAKKKVSRLRSLIEGSSAIQKLRQELSEFKEILKCKACNDRPKEVVITKCYHLFCNPCVQKLTGTRQKKCPTCSASFGPNDIKPIYI
notes: Full length HUB1; In the TAP experiments N-terminally fused to the TAP tag or the GS-TAP tag; in yeast two-hybrid fused to AD (pDEST22) or BD (pDEST32); all these constructs are written under this one entry; also called HUB1fl; full length HUB1

One data set has as its target T1, LUG/RON2, At4G32551. Kind of data set: yeast two-hybrid.
The target in data set [1] is B2. As to the kind of experiment: TAP with N-terminally TAP-tagged HUB1, mass spectrometry; column To be confirmed (interacted only once). Here is the method:
(§1) Because the RING proteins have their functionally important domain at the C-terminus, an N-terminal fusion was prepared instead of the traditional C-terminal fusion by cloning both full length and the point mutant form of HUB1 (HUB1pm, HUB1fl). The Arabidopsis cell cultures were transformed with the two constructs and cultivated on 10 litre scale, harvested and purified by TAP (Van Leene et al., Mol. Cell. Proteomics 6, 1226-38, 2007). The protein extracts were separated on 1-D SDS-PAGE gels and isolated from gel for protein identification by mass spectrometry (Laukens et al., Proteomics. 4, 720-7, 2004, Van Leene et al., 2007). Two cut offs were used resulting in “confirmed” and “to be confirmed” candidate interactor lists (Table I).
(§2) In the data set of confirmed interactors TAP HUB1 and HUB2 were present, […] the dimer formation between the homologues. In addition, the acetyltransferase GCN5, RNA binding proteins and a KH domain protein were identified as HUB1 interacting proteins. Most of these proteins are known to be localized in nucleus or nucleoli. GFP constructs of HUB1 have also been localized to nucleus (Liu et al., 2007). When HUB1pm was used for TAP purification no HUB2 could be identified as an interacting protein.

For data set [2], the target named is UBC2, At2g02760 (Arabidopsis thaliana) (UniProt P42745). Kind of data set: GS-TAP purification + MALDI-TOF-TOF MS, bait UBC2 (second block, as the rows stand); expectance is the MS identification score.
UBC2, At2g02760 (Arabidopsis thaliana), sequence (P42745 whole entry): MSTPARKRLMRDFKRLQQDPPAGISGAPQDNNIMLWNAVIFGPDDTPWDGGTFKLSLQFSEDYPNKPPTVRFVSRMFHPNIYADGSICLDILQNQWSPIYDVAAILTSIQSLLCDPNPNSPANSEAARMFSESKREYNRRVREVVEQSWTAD
Data set [3] concerns the molecule itself. As to the kind of experiment: TAP with N-terminally TAP-tagged HUB1 from Arabidopsis cell culture, mass spectrometry; column Confirmed. Here is the method: as §1, §2

For the molecule B1, the binding result is recorded as “binds” in the data set with LUG/RON2, At4G32551 and “binds” in data set [1]. Further, the Expectance in data set [2] came to 1e-24.

Regarding B2, the “monoubiquitination of histone H2B in the in vitro ubiquitination assay (protein gel blot)” value in the data set with histone H2B was “shift of H2B by 10 kDa”. In addition, the binding result in data set [3] is reported as “binds”.
